Columns and labels:
[1] = test system: minimal residual disease (clonal multiple myeloma cells in bone marrow); test: MAIA: minimal residual disease in bone marrow aspirates by next-generation sequencing (clonoSEQ version 2.0); format: in vivo, human; conditions: threshold 1 tumor cell per 10^5 white cells
Text: MRD status may be assessed from bone marrow aspirate samples using for example next generation sequencing (NGS) of immunoglobulin heavy and light chains. The updated, analytically validated version of the clonoSEQ® Assay (Version 2) by Adaptive Biotechnologies may be used for the detection, quantification and analysis of MRD.
A central laboratory performed disease evaluations (serum and 24-hour urine samples) every 28 days for 2 years, and then every 8 weeks until disease progression. For patients with positive serum immunofixation and daratumumab (DARZALEX®) interference, complete responses were confirmed using reflex assays (McCudden et al., Clin Chem Lab Med 54:1095-1104, 2016). Minimal residual disease was evaluated by next-generation sequencing assays (clonoSEQ® version 2.0; Adaptive Biotechnologies) on bone marrow aspirates collected at baseline, at time of suspected complete or stringent complete response (undetectable M-protein on two consecutive serum and urine electrophoresis tests), and at 12, 18, 24, and 30 months post-first dose in patients who achieved a complete response or better.

[2] = test system: transplant-ineligible NDMM patients; test: MAIA subgroup analysis by age (<75 vs >75 y): safety (TEAEs, discontinuations); format: in vivo, human
Experimental: To examine the impact of age on the efficacy and safety of D-Rd vs Rd in this patient population, a subgroup analysis was conducted within patients <75 and >75 y of age.
Transplant-ineligible NDMM patients were randomized 1:1 to Rd±DARA; stratification was based on age (<75 vs >75 years), ISS (I, II, III), and region (North America vs Other). In standard Rd dosing, patients received 28-day cycles of lenalidomide 25 mg PO QD on Days 1-21 and dexamethasone 40 mg PO on Days 1, 8, 15 and 22 until progression. A portion of patients received 10 mg lenalidomide and 20 mg dexamethasone at the beginning of the treatment. In the DRd arm, patients received daratumumab (DARZALEX®) 16 mg/kg IV QW for Cycles 1-2, Q2W for Cycles 3-6, and Q4W thereafter until progression. PFS was the primary endpoint.

[3] = test system: patients with newly diagnosed multiple myeloma ineligible for HDC and ASCT; test: MAIA: safety, adverse events graded by NCI-CTCAE version 4, treatment discontinuations
Text: Safety will be measured by adverse events, laboratory test results, ECGs, vital sign measurements, physical examination findings, and assessment of ECOG performance status score.
Safety analyses included adverse event assessment graded in severity according to NCI-CTCAE version 4, electrocardiograms, clinical laboratory testing, physical examinations, and vital signs.
The safety population included patients who received any dose of trial treatment.

[4] = grade 3/4 TEAEs, <75 y patients
[5] = grade 3/4 TEAEs, >75 y patients
[6] = Grade 3 or 4, safety population

## daratumumab (DARZALEX®) group: daratumumab (DARZALEX®) in combination with lenalidomide and dexamethasone
[1]; ITT population
  Negative status for minimal residual disease: 89 (24.2) no. (%)
[1]
  negative status for minimal residual disease, times as high as in the control group: more than 3 times
[1]; ITT, P<0.0001
  patients minimal residual disease-negative: 24.2%
[2]; <75 y
  discontinuation rate due to infections: 1%
  discontinued lenalidomide due to TEAEs: 15%
  discontinued treatment due to TEAEs: 5%
[2]; >75 y
  discontinuation rate due to infections: 0%
  discontinued lenalidomide due to TEAEs: 29%
  discontinued treatment due to TEAEs: 10%
[2]; [4]
  anemia: 9%
  leukopenia: 10%
  lymphopenia: 12%
  neutropenia: 43%
  pneumonia: 13%
[2]; [5]
  anemia: 16%
  leukopenia: 12%
  lymphopenia: 19%
  neutropenia: 60%
  pneumonia: 15%
  thrombocytopenia: 8%
[3]
  patients with adverse events leading to discontinuation of trial treatment: 7.1%
[3]; % of patients
  adverse events leading to death: 6.9%
  invasive second primary malignancies: 3.3%
  pneumonia as adverse event leading to death: 0.5%
  pneumonia as serious adverse event: 13.2%
  serious adverse events: 62.9%
[3]; Any Grade, safety population
  Any infusion-related reaction: 149 (40.9) number of patients (percent)
  Asthenia: 117 (32.1) number of patients (percent)
  Back pain: 123 (33.8) number of patients (percent)
  Constipation: 149 (40.9) number of patients (percent)
  Diarrhea: 207 (56.9) number of patients (percent)
  Fatigue: 147 (40.4) number of patients (percent)
  Invasive second primary malignancy: 12 (3.3) number of patients (percent)
  Nausea: 115 (31.6) number of patients (percent)
  Peripheral edema: 140 (38.5) number of patients (percent)
  Second primary malignancy: 32 (8.8) number of patients (percent)
  anemia: 126 (34.6) number of patients (percent)
  leukopenia: 68 (18.7) number of patients (percent)
  lymphopenia: 66 (18.1) number of patients (percent)
  pneumonia: 82 (22.5) number of patients (percent)
[3]; Any Grade, safety population (N = 364 vs 365)
  neutropenia: 207 (56.9) number of patients (percent)
[3]; [6]
  Any infusion-related reaction: 10 (2.7) number of patients (percent)
  Asthenia: 16 (4.4) number of patients (percent)
  Back pain: 11 (3.0) number of patients (percent)
  Constipation: 6 (1.6) number of patients (percent)
  Diarrhea: 24 (6.6) number of patients (percent)
  Fatigue: 29 (8.0) number of patients (percent)
  Nausea: 5 (1.4) number of patients (percent)
  Peripheral edema: 7 (1.9) number of patients (percent)
  anemia: 43 (11.8) number of patients (percent)
  leukopenia: 40 (11.0) number of patients (percent)
  lymphopenia: 55 (15.1) number of patients (percent)
  neutropenia: 182 (50.0) number of patients (percent)
  pneumonia: 50 (13.7) number of patients (percent)
[3]; at clinical cutoff date Sep. 24, 2018
  treatment discontinued due to adverse events: 7.4%
[3]; grade 3/4 adverse events
  anemia: 11.8%
  leukopenia: 11.0%
  lymphopenia: 15.1%
  neutropenia: 50.0%
  pneumonia: 13.7%
[3]; in vivo
  discontinued treatment due to neutropenia: no patients
  invasive second primary malignancies: hematologic malignancies: 0.5%
  invasive second primary malignancies: solid tumors: 2.7%
  lenalidomide dose delays, reductions, re-escalations, or skipping (combined) due to treatment-emergent adverse events: 77.5%
  lenalidomide dose discontinuations due to treatment-emergent adverse events: 20.9%
